B1: PDS5B (parent)
chain: IYKKYALQSAAGKDAAKQIAWIKD

Variants of: B1
Assay: protein stability index of a GFP-peptide fusion (GPS, HEK-293T) (PSI 1-6); higher = more stable
Details: c terminus: a fixed tail appended
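Further: lentivirally expressed fusions sorted by FACS into six bins by GFP to DsRed ratio, PSI derived from sequencing read proportions per bin multiplied by bin number.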

Variant	protein stability index
IYKKYALLSAAGKDAAKQIAWIKD	1.85
IYKKYALWSAAGKDAAKQIAWIKD	1.92
IYKKYALASAAGKDAAKQIAWIKD	2.4
IYKKYALISAAGKDAAKQIAWIKD	2.7
IYKKYALPSAAGKDAAKQIAWIKD	2.72
IYKKYALMSAAGKDAAKQIAWIKD	2.06
IYKKYALRSAAGKDAAKQIAWIKD	2.21
IYKKYALESAAGKDAAKQIAWIKD	2.67
IYKKYALFSAAGKDAAKQIAWIKD	3.35
IYKKYALSSAAGKDAAKQIAWIKD	2.25
IYKKYALGSAAGKDAAKQIAWIKD	2.01
IYKKYKLQSAAGKDAAKQIAWIKD	2.18
IYKKYYLQSAAGKDAAKQIAWIKD	1.52
IYKKYWLQSAAGKDAAKQIAWIKD	2
IYKKYFLQSAAGKDAAKQIAWIKD	2.49
IYKKYHLQSAAGKDAAKQIAWIKD	1.97
IYKKYGLQSAAGKDAAKQIAWIKD	2.88
IYKKYTLQSAAGKDAAKQIAWIKD	2.39
IYKKYRLQSAAGKDAAKQIAWIKD	2.55
IYKKYPLQSAAGKDAAKQIAWIKD	3.02
IYQKYALQSAAGKDAAKQIAWIKD	2.33
IYIKYALQSAAGKDAAKQIAWIKD	2.93
IYNKYALQSAAGKDAAKQIAWIKD	2.27
IYSKYALQSAAGKDAAKQIAWIKD	2.48

Variant	protein stability index
IYMKYALQSAAGKDAAKQIAWIKD	1.72
IYGKYALQSAAGKDAAKQIAWIKD	2.24
IYAKYALQSAAGKDAAKQIAWIKD	2.26
IYKKYALQSNAGKDAAKQIAWIKD	2.19
IYKKYALQSMAGKDAAKQIAWIKD	1.83
IYKKYALQSSAGKDAAKQIAWIKD	2.36
IYKKYALQSFAGKDAAKQIAWIKD	1.37
IYKKYALQSPAGKDAAKQIAWIKD	2.26
IYKKYALQSHAGKDAAKQIAWIKD	1.84
IYKKYALQSIAGKDAAKQIAWIKD	1.89
IYKKYALQSKAGKDAAKQIAWIKD	2
IYKKYALQSEAGKDAAKQIAWIKD	2.38
IYKKYALQSAAGYDAAKQIAWIKD	2.92
IYKKYALQSAAGDDAAKQIAWIKD	2.6
IYKKYALQSAAGGDAAKQIAWIKD	2.22
IYKKYALQSAAGIDAAKQIAWIKD	2.16
IYKKYALQSAAGQDAAKQIAWIKD	2.1
IYKKYALQSAAGADAAKQIAWIKD	2.93
IYKKYALQSAAGVDAAKQIAWIKD	2
IYKKYALQSAAGKDAAFQIAWIKD	1.32
IYKKYALQSAAGKDAAPQIAWIKD	2.51
IYKKYALQSAAGKDAAYQIAWIKD	1.66
IYKKYALQSAAGKDAADQIAWIKD	3.27
IYKKYALQSAAGKDAATQIAWIKD	2.92

Variant	protein stability index
IYKKYALQSAAGKDAAQQIAWIKD	2.19
IYKKYALQSAAGKDAAEQIAWIKD	3.42
IYKKYALQSAAGKDAANQIAWIKD	2.51
IYKKYALQSAAGKDAAMQIAWIKD	1.38
IYKKYALQSAAGKDAAKQIAPIKD	3.57
IYKKYALQSAAGKDAAKQIAAIKD	3.22
IYKKYALQSAAGKDAAKQIAIIKD	2.88
IYKKYALQSAAGKDAAKQIALIKD	2.19
IYKKYALQSAAGKDAAKQIAVIKD	2.72
IYKKYALQSAAGKDAAKQIAQIKD	3.09
IYKKYALQSAAGKDAAKQIAHIKD	2.75
IYKKYALQSAAGKDAAKQIAMIKD	3.2
IYKKYALQSAAGKDAAKQIACIKD	3.02
IYKKYALQSAAGKDAMKQIAWIKD	2.02
IYKKYALQSAAGKDAEKQIAWIKD	2.82
IYKKYALQSAAGKDAKKQIAWIKD	2.33
IYKKYALQSAAGKDAHKQIAWIKD	2.29
IYKKYALQSAAGKDAPKQIAWIKD	2.05
IYKKYALQSAAGKDACKQIAWIKD	2.16
IYKKYALQSAAGKDAFKQIAWIKD	1.76
IYKKYALQSAAGKDANKQIAWIKD	2.39
IYKKYAFQSAAGKDAAKQIAWIKD	1.68
IYKKYAAQSAAGKDAAKQIAWIKD	2.5
IYKKYAYQSAAGKDAAKQIAWIKD	2.04

Variant	protein stability index
IYKKYAHQSAAGKDAAKQIAWIKD	2.6
IYKKYADQSAAGKDAAKQIAWIKD	3.16
IYKKYACQSAAGKDAAKQIAWIKD	1.93
IYKKYASQSAAGKDAAKQIAWIKD	2.68
IYKKYAQQSAAGKDAAKQIAWIKD	3.06
IYKKYAGQSAAGKDAAKQIAWIKD	2.42
IYKKYALQSAAGKDAAKTIAWIKD	1.6
IYKKYALQSAAGKDAAKEIAWIKD	2.45
IYKKYALQSAAGKDAAKAIAWIKD	2.06
IYKKYALQSAAGKDAAKHIAWIKD	2.43
IYKKYALQSAAGKDAAKNIAWIKD	2.49
IYKKYALQSAAGKDAAKRIAWIKD	2.24
IYKKYALQSAASKDAAKQIAWIKD	1.96
IYKKYALQSAAFKDAAKQIAWIKD	1.99
IYKKYALQSAAIKDAAKQIAWIKD	1.69
IYKKYALQSAARKDAAKQIAWIKD	1.88
IYKKYALQSAANKDAAKQIAWIKD	2.19
IYKKYALQSAAQKDAAKQIAWIKD	1.58
IYKKYALQSAAVKDAAKQIAWIKD	2.08
IYKKYALQSAAHKDAAKQIAWIKD	1.67
IYKKYALQSAAYKDAAKQIAWIKD	1.64
IYKKYALQSAAGKDAAKQINWIKD	2.68
IYKKYALQSAAGKDAAKQILWIKD	1.89
IYKKYALQSAAGKDAAKQISWIKD	2.4

Variant	protein stability index
IYKKYALQSAAGKDAAKQITWIKD	2.23
IYKKYALQSAAGKDAAKQIPWIKD	2.66
IYKKYALQSAAGKDAAKQIKWIKD	2.26
IYKKYALQSAAGKDAAKQICWIKD	2.18
IYKKYALQSAAGKDAAKQIMWIKD	2.02
IYKKYALQSAAGKDAAKQIQWIKD	2.29
IYKKYALQSAAGKDAAKQIYWIKD	2.22
IYKKYALQSAAGKRAAKQIAWIKD	2.72
IYKKYALQSAAGKMAAKQIAWIKD	2.1
IYKKYALQSAAGKNAAKQIAWIKD	2.19
IYKKYALQSAAGKEAAKQIAWIKD	2.1
IYKKYALQSAAGKIAAKQIAWIKD	1.82
IYKKYALQSAAGKSAAKQIAWIKD	2.15
IAKKYALQSAAGKDAAKQIAWIKD	2.32
ITKKYALQSAAGKDAAKQIAWIKD	2.98
IRKKYALQSAAGKDAAKQIAWIKD	2.38
IVKKYALQSAAGKDAAKQIAWIKD	2.27
ILKKYALQSAAGKDAAKQIAWIKD	2.34
INKKYALQSAAGKDAAKQIAWIKD	2.98
IKKKYALQSAAGKDAAKQIAWIKD	2.87
IGKKYALQSAAGKDAAKQIAWIKD	3.38
IDKKYALQSAAGKDAAKQIAWIKD	3.75
IHKKYALQSAAGKDAAKQIAWIKD	3.02
IYKKYALQSAAGKDHAKQIAWIKD	2.22

Variant	protein stability index
IYKKYALQSAAGKDEAKQIAWIKD	2.7
IYKKYALQSAAGKDIAKQIAWIKD	1.69
IYKKYALQSAAGKDAAKQIAWIKA	2
IYKKYALQSAAGKDAAKQIAWIKT	1.94
IYKKYALQSAAGKDAAKQIAWIKY	1.14
IYKKYALQSAAGKDAAKQIAWIKQ	1.7
IYKKYALQSAAGKDAAKQIAWIKR	1.97
IYKKYALQSAAGKDAAKQIAWFKD	2.29
IYKKYALQSAAGKDAAKQIAWNKD	3.26
IYKKYALQSAAGKDAAKQIAWQKD	3.27
IYKKYALQSAAGKDAAKQIAWTKD	3.31
IYKKYALQSAAGKDAAKQIAWDKD	3.78
IYKKYALQSAAGKDAAKQIAWGKD	2.8
IYKKYALQSAAGKDAAKQIAWAKD	3.14
IYKKYALQSAAGKDAAKQIAWPKD	3.1
IYKKHALQSAAGKDAAKQIAWIKD	2.46
IYKKCALQSAAGKDAAKQIAWIKD	1.75
IYKKAALQSAAGKDAAKQIAWIKD	2.78
IYKKLALQSAAGKDAAKQIAWIKD	2.36
IYKKRALQSAAGKDAAKQIAWIKD	2.43
IYKKSALQSAAGKDAAKQIAWIKD	2.65
IYKKVALQSAAGKDAAKQIAWIKD	2.89
IYKKPALQSAAGKDAAKQIAWIKD	3.63
IYKKEALQSAAGKDAAKQIAWIKD	3.09

Variant	protein stability index
SYKKYALQSAAGKDAAKQIAWIKD	2.63
MYKKYALQSAAGKDAAKQIAWIKD	2.08
FYKKYALQSAAGKDAAKQIAWIKD	1.68
AYKKYALQSAAGKDAAKQIAWIKD	2.62
WYKKYALQSAAGKDAAKQIAWIKD	2.14
RYKKYALQSAAGKDAAKQIAWIKD	2.5
IYKKYALQNAAGKDAAKQIAWIKD	2.2
IYKKYALQIAAGKDAAKQIAWIKD	1.93
IYKKYALQQAAGKDAAKQIAWIKD	2.79
IYKKYALQSAAGKDAAKQGAWIKD	3.46
IYKKYALQSAAGKDAAKQCAWIKD	2.38
IYKKYALQSAAGKDAAKQRAWIKD	2.38
IYKKYALQSAAGKDAAKQSAWIKD	2.6
IYKKYALQSAAGKDAAKQQAWIKD	2.52
IYKKYALQSAAGKDAAKQWAWIKD	1.93
IYKKYALQSAAGKDAAKQAAWIKD	2.48
IYKKYALQSASGKDAAKQIAWIKD	2.3
IYKKYALQSAMGKDAAKQIAWIKD	1.78
IYKKYALQSACGKDAAKQIAWIKD	1.58
IYKKYALQSAHGKDAAKQIAWIKD	1.75
IYKKYALQSAIGKDAAKQIAWIKD	1.73
IYKKYALQSANGKDAAKQIAWIKD	2.61
IYKHYALQSAAGKDAAKQIAWIKD	2.39
IYKFYALQSAAGKDAAKQIAWIKD	2.32

Variant	protein stability index
IYKQYALQSAAGKDAAKQIAWIKD	2.6
IYKNYALQSAAGKDAAKQIAWIKD	2.68
IYKYYALQSAAGKDAAKQIAWIKD	1.84
IYKRYALQSAAGKDAAKQIAWIKD	2.25
IYKEYALQSAAGKDAAKQIAWIKD	2.68
IYKTYALQSAAGKDAAKQIAWIKD	2.7
IYKCYALQSAAGKDAAKQIAWIKD	1.61
IYKGYALQSAAGKDAAKQIAWIKD	2.61
IYKKYALQSAAGKDAAKQIAWIRD	1.52
IYKKYALQSAAGKDAAKQIAWIND	2.24
IYKKYALQSAAGKDAAKQIAWIMD	2
IYKKYALQSAAGKDAAKQIAWIFD	2.39
IYKKYALQSAAGKDAAKQIAWIGD	2.68
IYKKYALQSAAGKDAAKQIAWIQD	2.23
IYKKYALQSAAGKDAAKQIAWIHD	2.55
IYKKYALQSAAGKDAAKQIAWISD	2.98
IYKKYALQSAAGKDAAKQIAWIAD	2.11
IYKKYALQSAAGKDAAKQIAWICD	1.47
IYKKYALQSAAGKDAAKQIAWIED	2.53
IYKKYALQSAAGKDAAKQIAWIVD	1.54
